According to patent US20200199241A1 (Chugai, published 2020):
Residue numbers refer to the chain shown, from its start.

B1: IgG1-F910 (antibody)
heavy: QVQLQESGPGLVKPSETLSLTCAVSGHSISHDHAWSWVRQPPGEGLEWIGFISYSGITNYNPSLQGRVTISRDNSKNTLYLQMNSLRAEDTAVYYCARSLARTTAMDYWGEGTLVTVSSASTKGPSVFPLAPSSKSTSGGTAALGCLVKDYFPEPVTVSWNSGALTSGVHTFPAVLQSSGLYSLSSVVTVPSSSLGTQTYICNVNHKPSNTKVDKKVEPKSCDKTHTCPPCPAPELLGGPSVFLFPPKPKDTLYISRTPEVTCVVVDVSHEDPEVKFNWYVDGVEVHNAKTKPREEQYNSTYRVVSVLTVLHQDWLDQKEYKCKVSNKALPAPIEKTISKAKGQPREPQVYTLPPSRDELTKNQVSLTCLVKGFYPSDIAVEWESNGQPENNYKTTPPVLDSDGSFFLYSKLTVDKSRWQQGNVFSCSVMHEALHYHYTQKSLSLSP
light: not shown
notes: EU numbering; copies: 2 + 2
B2: IgG1-F980 (antibody)
heavy: B1 heavy with S256V, D317N, Q318G
light: not shown
notes: EU numbering; copies: 2 + 2
B3: IgG1-F988 (antibody)
heavy: B1 heavy with P240D, T252V, N288E, D317N, Q318G, Y438V
light: not shown
notes: EU numbering; copies: 2 + 2
B4: IgG1-F1011 (antibody)
heavy: B1 heavy with T252V, V310P, D317N, Q318G
light: not shown
notes: EU numbering; copies: 2 + 2
B5: IgG1-F915 (antibody)
heavy: B1 heavy with Q318W
light: not shown
notes: EU numbering; copies: 2 + 2
B6: IgG1-F935 (antibody)
heavy: B1 heavy with G239K, P240D, T252V, D317N, Q318G
light: not shown
notes: EU numbering; copies: 2 + 2
B7: IgG1-F947 (antibody)
heavy: B1 heavy with T252V, T309Q, V310P, Q313A, D317N, Q318G, Y438V
light: not shown
notes: copies: 2 + 2
B8: IgG1-F989 (antibody)
heavy: B1 heavy with L237R, S241K, V310P, D317N, Q318G, Y438V
light: not shown
notes: EU numbering; copies: 2 + 2
B9: IgG1-F990 (antibody)
heavy: B1 heavy with L237R, S241K, T309Q, V310P, Q313A, D317N, Q318G, Y438V
light: not shown
notes: EU numbering; copies: 2 + 2
B10: IgG1-F943 (antibody)
heavy: B1 heavy with L237R, S241K, T309Q, Q313A, D317N, Q318G, Y438V
light: not shown
notes: EU numbering; copies: 2 + 2
B11: IgG1-F957 (antibody)
heavy: B1 heavy with D317N, Q318G, H437N, Y438V
light: not shown
notes: EU numbering; copies: 2 + 2
B12: IgG1-F972 (antibody)
heavy: B1 heavy with S256I, D317N, Q318G
light: not shown
notes: EU numbering; copies: 2 + 2
B13: IgG1-F944 (antibody)
heavy: B1 heavy with T252V, D317N, Q318G, Y438V
light: not shown
notes: EU numbering; copies: 2 + 2
B14: IgG1-F999 (antibody)
heavy: B1 heavy with T252V, E260H, D317N, Q318G, Y438V
light: not shown
notes: EU numbering; copies: 2 + 2
B15: IgG1-F926 (antibody)
heavy: B1 heavy with L237K, S241K, S256T, D317N, Q318G, Y438I
light: not shown
notes: EU numbering; copies: 2 + 2
B16: IgG1-F931 (antibody)
heavy: B1 heavy with P240D, T252V, D317N, Q318G, Y438I
light: not shown
notes: EU numbering; copies: 2 + 2
B17: IgG1-F966 (antibody)
heavy: B1 heavy with S256A, D317N, Q318G
light: not shown
notes: EU numbering; copies: 2 + 2
B18: IgG1-F939 (antibody)
heavy: B1 heavy with L237R, S241K, D317N, Q318G, Y438V
light: not shown
notes: copies: 2 + 2
B19: IgG1-F927 (antibody)
heavy: B1 heavy with L237R, S241K, S256T, D317N, Q318G, Y438I
light: not shown
notes: EU numbering; copies: 2 + 2
B20: IgG1-F960 (antibody)
heavy: B1 heavy with D317N, Q318G, H437R, Y438V
light: not shown
notes: EU numbering; copies: 2 + 2
B21: IgG1-F934 (antibody)
heavy: B1 heavy with G238K, P240D, T252V, D317N, Q318G
light: not shown
notes: EU numbering; copies: 2 + 2
B22: IgG1-F911 (antibody)
heavy: B1 heavy with Q318R
light: not shown
notes: EU numbering; copies: 2 + 2
B23: IgG1-F938 (antibody)
heavy: B1 heavy with L237K, S241K, D317N, Q318G, Y438V
light: not shown
notes: copies: 2 + 2
B24: IgG1-F923 (antibody)
heavy: B1 heavy with L237R, S241K, N288E, D317N, Q318G, Y438I
light: not shown
notes: EU numbering; copies: 2 + 2
B25: IgG1-F940 (antibody)
heavy: B1 heavy with P240D, T252V, D317N, Q318G, Y438V
light: not shown
notes: EU numbering; copies: 2 + 2
B26: IgG1-F912 (antibody)
heavy: B1 heavy with Q318S
light: not shown
notes: EU numbering; copies: 2 + 2
B27: IgG1-F997 (antibody)
heavy: B1 heavy with K250I, T252V, D317N, Q318G, Y438V
light: not shown
notes: EU numbering; copies: 2 + 2
B28: IgG1-F932 (antibody)
heavy: B1 heavy with T252V, D317N, Q318G
light: not shown
notes: EU numbering; copies: 2 + 2
B29: IgG1-F920 (antibody)
heavy: B1 heavy with N288S, D317N, Q318G, N386A, N391A
light: not shown
notes: EU numbering; copies: 2 + 2
B30: IgG1-F933 (antibody)
heavy: B1 heavy with L236R, P240D, T252V, D317N, Q318G
light: not shown
notes: EU numbering; copies: 2 + 2
B31: IgG1-F914 (antibody)
heavy: B1 heavy with Q318V
light: not shown
notes: EU numbering; copies: 2 + 2
B32: IgG1-F998 (antibody)
heavy: B1 heavy with K250Y, T252V, D317N, Q318G, Y438V
light: not shown
notes: EU numbering; copies: 2 + 2
B33: IgG1-F1009 (antibody)
heavy: B1 heavy with L237R, S241K, T252V, T309Q, V310P, Q313A, D317N, Q318G, Y438V
light: not shown
notes: copies: 2 + 2
B34: IgG1-F917 (antibody)
heavy: B1 heavy with N288S, D317N, Q318G
light: not shown
notes: EU numbering; copies: 2 + 2
B35: IgG1-F924 (antibody)
heavy: B1 heavy with L237K, S241K, T309Q, Q313A, D317N, Q318G, Y438I
light: not shown
notes: EU numbering; copies: 2 + 2
B36: IgG1-F995 (antibody)
heavy: B1 heavy with L237R, P240D, S241K, D317N, Q318G
light: not shown
notes: EU numbering; copies: 2 + 2
B37: IgG1-F994 (antibody)
heavy: B1 heavy with D317N, Q318G, N327G
light: not shown
notes: EU numbering; copies: 2 + 2
B38: IgG1-F1008 (antibody)
heavy: B1 heavy with L237R, S241K, T252V, D317N, Q318G, Y438V
light: not shown
notes: EU numbering; copies: 2 + 2
B39: IgG1-F942 (antibody)
heavy: B1 heavy with L237K, S241K, T309Q, Q313A, D317N, Q318G, Y438V
light: not shown
notes: EU numbering; copies: 2 + 2
B40: IgG1-F918 (antibody)
heavy: B1 heavy with D282E, D317N, Q318G, N386A, N391A
light: not shown
notes: EU numbering; copies: 2 + 2
B41: IgG1-F946 (antibody)
heavy: B1 heavy with T252V, T309Q, Q313A, D317N, Q318G, Y438V
light: not shown
notes: EU numbering; copies: 2 + 2
B42: IgG1-F992 (antibody)
heavy: B1 heavy with L237R, S241K, T309Q, Q313A, D317N, Q318G, M430I, Y438V
light: not shown
notes: EU numbering; copies: 2 + 2
B43: IgG1-F991 (antibody)
heavy: B1 heavy with L237R, S241K, N288E, T309Q, Q313A, D317N, Q318G, Y438V
light: not shown
notes: EU numbering; copies: 2 + 2
B44: IgG1-F971 (antibody)
heavy: B1 heavy with S256H, D317N, Q318G
light: not shown
notes: EU numbering; copies: 2 + 2
B45: IgG1-F921 (antibody)
heavy: B1 heavy with N288E, D317N, Q318G, N386A, N391A
light: not shown
notes: EU numbering; copies: 2 + 2
B46: IgG1-F925 (antibody)
heavy: B1 heavy with L237R, S241K, T309Q, Q313A, D317N, Q318G, Y438I
light: not shown
notes: EU numbering; copies: 2 + 2
B47: IgG1-F970 (antibody)
heavy: B1 heavy with S256G, D317N, Q318G
light: not shown
notes: EU numbering; copies: 2 + 2
B48: IgG1-F922 (antibody)
heavy: B1 heavy with L237K, S241K, N288E, D317N, Q318G, Y438I
light: not shown
notes: EU numbering; copies: 2 + 2
B49: IgG1-F996 (antibody)
heavy: B1 heavy with L237R, P240D, S241K, D317N, Q318G, Y438V
light: not shown
notes: EU numbering; copies: 2 + 2
B50: IgG1-F987 (antibody)
heavy: B1 heavy with P240D, T252V, T309Q, Q313A, D317N, Q318G, Y438V
light: not shown
notes: EU numbering; copies: 2 + 2
B51: IgG1-F1010 (antibody)
heavy: B1 heavy with L237R, S241K, T309A, Q313H, D317N, Q318G
light: not shown
notes: EU numbering; copies: 2 + 2
B52: IgG1-F913 (antibody)
heavy: B1 heavy with Q318T
light: not shown
notes: EU numbering; copies: 2 + 2
B53: IgG1-F993 (antibody)
heavy: B1 heavy with T309Q, Q313A, D317N, Q318G, Y438V
light: not shown
notes: EU numbering; copies: 2 + 2
B54: IgG1-F945 (antibody)
heavy: B1 heavy with T252V, V310P, D317N, Q318G, Y438V
light: not shown
notes: EU numbering; copies: 2 + 2
B55: IgG1-F937 (antibody)
heavy: B1 heavy with P240D, S241K, T252V, D317N, Q318G
light: not shown
notes: EU numbering; copies: 2 + 2
B56: IgG1-F954 (antibody)
heavy: B1 heavy with D317N, Q318G, H437K, Y438V
light: not shown
notes: EU numbering; copies: 2 + 2
B57: IgG1-F930 (antibody)
heavy: B1 heavy with P240D, T252V, N288E, D317N, Q318G
light: not shown
notes: EU numbering; copies: 2 + 2
B58: IgG1-F978 (antibody)
heavy: B1 heavy with S256Q, D317N, Q318G
light: not shown
notes: EU numbering; copies: 2 + 2
B59: IgG1-F1012 (antibody)
heavy: B1 heavy with L237R, S241K, T252V, V310P, D317N, Q318G
light: not shown
notes: EU numbering; copies: 2 + 2
B60: IgG1-F929 (antibody)
heavy: B1 heavy with S256T, T309Q, Q313A, D317N, Q318G, Y438I
light: not shown
notes: EU numbering; copies: 2 + 2

Target: T1, soluble human FcRn complexed with β2-microglobulin (human, UniProt P61769 21-119, limits assumed)
T1 construct: also called hFcRn
Assay: Biacore SPR, pH 7.0;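 note: test antibodies captured on a Protein L chip with human FcRn flowed over as analyte, KD obtained as the ratio of dissociation to association rate constants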
Procedure: A kinetic analysis of binding between human FcRn and the aforementioned antibodies was carried out using the BIACORE™ T100 or T200 surface plasmon resonance system (GE Healthcare). The antibodies being tested were captured on the CM4 Sensor Chip (GE Healthcare) on which a suitable amount of Protein L (ACTIGEN® protein (Alltech)) was suitably immobilized by amine coupling. Next, diluted human FcRn and a running buffer used as a blank were injected to allow the human FcRn to interact with the antibody captured on the sensor chip. A buffer consisting of 50 mmol/L sodium phosphate, 150 mmol/L NaCl and 0.05% (w/v) polysorbate 20 (Tween 20®) (pH 7.0 or pH 7.4) was used for the running buffer, and each buffer was also used to dilute the human FcRn. 10 mmol/L glycine-HCl (pH 1.5) was used to regenerate the sensor chip. All measurements of binding were carried out at 25° C. The KD(M) of each antibody to human FcRn was calculated based on kinetics parameters, i.e., the association rate constant ka (1/Ms) and the dissociation rate constant kd (1/s) calculated from a sensorgram obtained by the measurement. The BIACORE™ T100 or T200 Evaluation Software (GE Healthcare) was used to calculate each parameter.

Kd [nM] | Binder
140 | B1
180 | B2
69 | B3
45 | B4
230 | B5
320 | B6
11 | B7
14 | B8
9.4 | B9
40 | B10
770 | B11
260 | B12
170 | B13
210 | B14
110 | B15
120 | B16
310 | B17
150 | B18
100 | B19
800 | B20

Kd [nM] | Binder
310 | B21
130 | B22
160 | B23
60 | B24
150 | B25
120 | B26
380 | B27
320 | B28
250 | B29
300 | B30
150 | B31
850 | B32
12 | B33
250 | B34
34 | B35
290 | B36
280 | B37
170 | B38
42 | B39
280 | B40

Kd [nM] | Binder
43 | B41
51 | B42
13 | B43
2600 | B44
120 | B45
32 | B46
2500 | B47
59 | B48
130 | B49
40 | B50
190 | B51
110 | B52
38 | B53
17 | B54
310 | B55
530 | B56
140 | B57
1300 | B58
47 | B59
29 | B60
